Test results taken from US20110021746A1 (published 2011).

Biological target: T1, TNF-α (UniProt P01375 77-233, biotinylated)
T1 construct: also called TNF-alpha; biotintylated TNF-α soluble protein (R&D Systems)
Assay: Octet BLI, biotinylated TNF-α on streptavidin tips
Experimental: The target protein was biotintylated TNF-α soluble protein (R&D Systems) and is at a concentration of 0.25 ug/ml for loading onto the streptavidin sensor tips. […] The Octet was run using the manufacturers protocol for Basic Kinetic Assay.

T1 sequence (P01375 77-233 limits assumed): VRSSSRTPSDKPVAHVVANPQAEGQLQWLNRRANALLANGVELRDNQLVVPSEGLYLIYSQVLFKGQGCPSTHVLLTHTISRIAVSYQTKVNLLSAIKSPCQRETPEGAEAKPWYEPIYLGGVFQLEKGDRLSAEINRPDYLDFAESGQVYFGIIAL

Kd: 20 to 100 nM
B1: TNF-α binder R41A6 (designed binder)
chain: NVSPPRRARVTDATETTITISWEHSEDDCYSYIYYFQVDAVPANGQTPIQRTISGYETYYTITGLQPGTDYKIYLYTLNSAGFCPPYSKPVVIDAST
notes: 14FN3 variant; for the Octet expressed from pET-20b with pelB signal and C-terminal hexahistidine tag; also called TNF A6
